The test concerns the target S6K1(WT)-HA (mouse, UniProt Q8BSK8-2 1-502). As to the kind of experiment: co-IP.

Chain of S6K1(WT)-HA (Q8BSK8 24-525): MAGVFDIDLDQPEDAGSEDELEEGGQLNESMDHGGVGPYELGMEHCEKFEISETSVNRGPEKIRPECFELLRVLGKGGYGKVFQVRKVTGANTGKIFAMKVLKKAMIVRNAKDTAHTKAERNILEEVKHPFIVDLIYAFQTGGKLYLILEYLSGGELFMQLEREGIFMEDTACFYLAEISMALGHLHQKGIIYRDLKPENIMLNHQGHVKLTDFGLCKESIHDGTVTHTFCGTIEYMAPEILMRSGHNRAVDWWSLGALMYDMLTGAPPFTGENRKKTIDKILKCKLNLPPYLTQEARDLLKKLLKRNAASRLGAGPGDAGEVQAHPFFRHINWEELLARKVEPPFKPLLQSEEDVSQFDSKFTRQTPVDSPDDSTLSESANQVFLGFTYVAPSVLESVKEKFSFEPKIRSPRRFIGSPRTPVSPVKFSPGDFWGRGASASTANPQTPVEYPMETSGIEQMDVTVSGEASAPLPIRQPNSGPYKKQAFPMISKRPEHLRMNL

B1: phosphorylated STING-Flag (phosphorylated by TBK1) (natural protein, mouse, UniProt Q3TBT3 1-378, looked up)
chain: MPYSNLHPAIPRPRGHRSKYVALIFLVASLMILWVAKDPPNHTLKYLALHLASHELGLLLKNLCCLAEELCHVQSRYQGSYWKAVRACLGCPIHCMAMILLSSYFYFLQNTADIYLSWMFGLLVLYKSLSMLLGLQSLTPAEVSAVCEEKKLNVAHGLAWSYYIGYLRLILPGLQARIRMFNQLHNNMLSGAGSRRLYILFPLDCGVPDNLSVVDPNIRFRDMLPQQNIDRAGIKNRVYSNSVYEILENGQPAGVCILEYATPLQTLFAMSQDAKAGFSREDRLEQAKLFCRTLEEILEDVPESRNNCRLIVYQEPTDGNSFSLSQEVLRHIRQEEKEEVTMNAPMTSVAPPPSVLSQEPRLLISGMDQPLPLRTDLI
modifications: phosphorylated by TBK1 (slower mobility, removed by calf intestine phosphatase); sites not stated
Turning to B1, the binding result is given as “binds”.

For the origin of these results see publication PMC4917298 (Nature immunology, 2016).
